Experimental findings from paper PMC11073571, “Functional and in silico analysis of ATP8A2 and other P4-ATPase variants associated with human genetic diseases” (Disease Models & Mechanisms, 2024) are described below.

Substrate in the data set: CCCCCCCC/C=C\CCCCCCCC(=O)OC[C@H](COP(=O)(O)OC[C@H](N)C(=O)O)OC(=O)CCCCCCC/C=C\CCCCCCCC
The data set is described as follows: colorimetric phosphate-release ATPase assay, Michaelis-Menten fit. Type of data set: biochemical, Homo sapiens. To be noted: PS activation constant (not association constant), 5 mM ATP, DOPC:DOPS mixtures at 2.5 mg/ml total lipid, 10 mM CHAPS, 12.5 mM MgCl2, pH 7.5, 37°C.

B1: ATP8A2-CDC50A complex (Homo sapiens) (protein)
chain: MLNGAGLDKALKMSLPRRSRIRSSVGPVRSSLGYKKAEDEMSRATSVGDQLEAPARTIYLNQPHLNKFRDNQISTAKYSVLTFLPRFLYEQIRRAANAFFLFIALLQQIPDVSPTGRYTTLVPLIIILTIAGIKEIVEDFKRHKADNAVNKKKTIVLRNGMWHTIMWKEVAVGDIVKVVNGQYLPADVVLLSSSEPQAMCYVETANLDGETNLKIRQGLSHTADMQTREVLMKLSGTIECEGPNRHLYDFTGNLNLDGKSLVALGPDQILLRGTQLRNTQWVFGIVVYTGHDTKLMQNSTKAPLKRSNVEKVTNVQILVLFGILLVMALVSSAGALYWNRSHGEKNWYIKKMDTTSDNFGYNLLTFIILYNNLIPISLLVTLEVVKYTQALFINWDTDMYYIGNDTPAMARTSNLNEELGQVKYLFSDKTGTLTCNIMNFKKCSIAGVTYGHFPELAREPSSDDFCRMPPPCSDSCDFDDPRLLKNIEDRHPTAPCIQEFLTLLAVCHTVVPEKDGDNIIYQASSPDEAALVKGAKKLGFVFTARTPFSVIIEAMGQEQTFGILNVLEFSSDRKRMSVIVRTPSGRLRLYCKGADNVIFERLSKDSKYMEETLCHLEYFATEGLRTLCVAYADLSENEYEEWLKVYQEASTILKDRAQRLEECYEIIEKNLLLLGATAIEDRLQAGVPETIATLLKAEIKIWVLTGDKQETAINIGYSCRLVSQNMALILLKEDSLDATRAAITQHCTDLGNLLGKENDVALIIDGHTLKYALSFEVRRSFLDLALSCKAVICCRVSPLQKSEIVDVVKKRVKAITLAIGDGANDVGMIQTAHVGVGISGNEGMQATNNSDYAIAQFSYLEKLLLVHGAWSYNRVTKCILYCFYKNVVLYIIELWFAFVNGFSGQILFERWCIGLYNVIFTALPPFTLGIFERSCTQESMLRFPQLYKITQNGEGFNTKVFWGHCINALVHSLILFWFPMKALEHDTVLTSGHATDYLFVGNIVYTYVVVTVCLKAGLETTAWTKFSHLAVWGSMLTWLVFFGIYSTIWPTIPIAPDMRGQATMVLSSAHFWLGLFLVPTACLIEDVAWRAAKHTCKKTLLEEVQELETKSRVLGKAVLRDSNGKRLNERDRLIKRLGRKTPPTLFRGSSLQQGVPHGYAFSQEEHGAVSQEEVIRAYDTTKKKSRKK
notes: heterodimer; with Cell cycle control protein 50A
On to B1, for which the K0.5 was 14.3 ± 4.3 µM.

B2: ATP8A2-CDC50A complex (Homo sapiens; E459Q) (protein)
chain: MLNGAGLDKALKMSLPRRSRIRSSVGPVRSSLGYKKAEDEMSRATSVGDQLEAPARTIYLNQPHLNKFRDNQISTAKYSVLTFLPRFLYEQIRRAANAFFLFIALLQQIPDVSPTGRYTTLVPLIIILTIAGIKEIVEDFKRHKADNAVNKKKTIVLRNGMWHTIMWKEVAVGDIVKVVNGQYLPADVVLLSSSEPQAMCYVETANLDGETNLKIRQGLSHTADMQTREVLMKLSGTIECEGPNRHLYDFTGNLNLDGKSLVALGPDQILLRGTQLRNTQWVFGIVVYTGHDTKLMQNSTKAPLKRSNVEKVTNVQILVLFGILLVMALVSSAGALYWNRSHGEKNWYIKKMDTTSDNFGYNLLTFIILYNNLIPISLLVTLEVVKYTQALFINWDTDMYYIGNDTPAMARTSNLNEELGQVKYLFSDKTGTLTCNIMNFKKCSIAGVTYGHFPELARQPSSDDFCRMPPPCSDSCDFDDPRLLKNIEDRHPTAPCIQEFLTLLAVCHTVVPEKDGDNIIYQASSPDEAALVKGAKKLGFVFTARTPFSVIIEAMGQEQTFGILNVLEFSSDRKRMSVIVRTPSGRLRLYCKGADNVIFERLSKDSKYMEETLCHLEYFATEGLRTLCVAYADLSENEYEEWLKVYQEASTILKDRAQRLEECYEIIEKNLLLLGATAIEDRLQAGVPETIATLLKAEIKIWVLTGDKQETAINIGYSCRLVSQNMALILLKEDSLDATRAAITQHCTDLGNLLGKENDVALIIDGHTLKYALSFEVRRSFLDLALSCKAVICCRVSPLQKSEIVDVVKKRVKAITLAIGDGANDVGMIQTAHVGVGISGNEGMQATNNSDYAIAQFSYLEKLLLVHGAWSYNRVTKCILYCFYKNVVLYIIELWFAFVNGFSGQILFERWCIGLYNVIFTALPPFTLGIFERSCTQESMLRFPQLYKITQNGEGFNTKVFWGHCINALVHSLILFWFPMKALEHDTVLTSGHATDYLFVGNIVYTYVVVTVCLKAGLETTAWTKFSHLAVWGSMLTWLVFFGIYSTIWPTIPIAPDMRGQATMVLSSAHFWLGLFLVPTACLIEDVAWRAAKHTCKKTLLEEVQELETKSRVLGKAVLRDSNGKRLNERDRLIKRLGRKTPPTLFRGSSLQQGVPHGYAFSQEEHGAVSQEEVIRAYDTTKKKSRKK
notes: as for B1
B2: the K0.5 was found to be 8.4 ± 3.1 µM.

B3: ATP8A2-CDC50A complex (Homo sapiens; E459D) (protein)
chain: MLNGAGLDKALKMSLPRRSRIRSSVGPVRSSLGYKKAEDEMSRATSVGDQLEAPARTIYLNQPHLNKFRDNQISTAKYSVLTFLPRFLYEQIRRAANAFFLFIALLQQIPDVSPTGRYTTLVPLIIILTIAGIKEIVEDFKRHKADNAVNKKKTIVLRNGMWHTIMWKEVAVGDIVKVVNGQYLPADVVLLSSSEPQAMCYVETANLDGETNLKIRQGLSHTADMQTREVLMKLSGTIECEGPNRHLYDFTGNLNLDGKSLVALGPDQILLRGTQLRNTQWVFGIVVYTGHDTKLMQNSTKAPLKRSNVEKVTNVQILVLFGILLVMALVSSAGALYWNRSHGEKNWYIKKMDTTSDNFGYNLLTFIILYNNLIPISLLVTLEVVKYTQALFINWDTDMYYIGNDTPAMARTSNLNEELGQVKYLFSDKTGTLTCNIMNFKKCSIAGVTYGHFPELARDPSSDDFCRMPPPCSDSCDFDDPRLLKNIEDRHPTAPCIQEFLTLLAVCHTVVPEKDGDNIIYQASSPDEAALVKGAKKLGFVFTARTPFSVIIEAMGQEQTFGILNVLEFSSDRKRMSVIVRTPSGRLRLYCKGADNVIFERLSKDSKYMEETLCHLEYFATEGLRTLCVAYADLSENEYEEWLKVYQEASTILKDRAQRLEECYEIIEKNLLLLGATAIEDRLQAGVPETIATLLKAEIKIWVLTGDKQETAINIGYSCRLVSQNMALILLKEDSLDATRAAITQHCTDLGNLLGKENDVALIIDGHTLKYALSFEVRRSFLDLALSCKAVICCRVSPLQKSEIVDVVKKRVKAITLAIGDGANDVGMIQTAHVGVGISGNEGMQATNNSDYAIAQFSYLEKLLLVHGAWSYNRVTKCILYCFYKNVVLYIIELWFAFVNGFSGQILFERWCIGLYNVIFTALPPFTLGIFERSCTQESMLRFPQLYKITQNGEGFNTKVFWGHCINALVHSLILFWFPMKALEHDTVLTSGHATDYLFVGNIVYTYVVVTVCLKAGLETTAWTKFSHLAVWGSMLTWLVFFGIYSTIWPTIPIAPDMRGQATMVLSSAHFWLGLFLVPTACLIEDVAWRAAKHTCKKTLLEEVQELETKSRVLGKAVLRDSNGKRLNERDRLIKRLGRKTPPTLFRGSSLQQGVPHGYAFSQEEHGAVSQEEVIRAYDTTKKKSRKK
notes: as for B1
In the case of B3, the K0.5 stood at 19.3 ± 4.2 µM.
